Test results as given in article PMC2288894.

Columns and labels:
[1] = biological target: the class I heavy chains (H-2Kb, Db, Kd, and Ld; Fig. 9); assay: co-IP
[2] = biological target: H-2Kd class I heavy chain (mouse (endogenous in MDAY-D2)); assay: cross-linking
[3] = biological target: H-2Db class I heavy chain (mouse (endogenous in EL4)); assay: cross-linking
[4] = biological target: H-2Kb class I heavy chain (mouse (endogenous in EL4)); assay: cross-linking
[5] = biological target: H-2Ld class I heavy chain (mouse (endogenous in MDAY-D2)); assay: cross-linking
[6] = biological target: the other three class I molecules (Bio-Gel A0.5m); assay: SEC

Chain of H-2Db class I heavy chain (mouse (endogenous in EL4)) (P01899 25-362): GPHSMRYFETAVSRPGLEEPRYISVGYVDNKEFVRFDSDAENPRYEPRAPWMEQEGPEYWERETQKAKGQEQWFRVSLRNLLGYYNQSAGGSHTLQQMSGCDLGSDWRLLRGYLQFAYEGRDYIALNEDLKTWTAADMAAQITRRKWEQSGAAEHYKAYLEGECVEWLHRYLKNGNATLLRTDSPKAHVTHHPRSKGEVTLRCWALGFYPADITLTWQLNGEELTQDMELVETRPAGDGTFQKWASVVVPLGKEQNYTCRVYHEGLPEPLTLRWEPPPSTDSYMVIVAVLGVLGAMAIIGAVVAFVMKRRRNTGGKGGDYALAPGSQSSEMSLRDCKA
Chain of H-2Kb class I heavy chain (mouse (endogenous in EL4)) (P01901 22-369): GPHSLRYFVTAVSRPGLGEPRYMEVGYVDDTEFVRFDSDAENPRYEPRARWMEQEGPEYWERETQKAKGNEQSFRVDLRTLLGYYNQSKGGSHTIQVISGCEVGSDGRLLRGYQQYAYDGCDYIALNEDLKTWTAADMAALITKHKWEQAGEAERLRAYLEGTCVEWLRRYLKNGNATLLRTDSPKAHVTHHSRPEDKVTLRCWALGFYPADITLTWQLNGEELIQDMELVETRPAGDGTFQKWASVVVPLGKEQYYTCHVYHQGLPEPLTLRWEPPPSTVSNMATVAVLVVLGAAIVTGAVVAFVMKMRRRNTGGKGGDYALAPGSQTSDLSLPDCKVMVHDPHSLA
Chain of H-2Ld class I heavy chain (mouse (endogenous in MDAY-D2)) (P01897 25-362): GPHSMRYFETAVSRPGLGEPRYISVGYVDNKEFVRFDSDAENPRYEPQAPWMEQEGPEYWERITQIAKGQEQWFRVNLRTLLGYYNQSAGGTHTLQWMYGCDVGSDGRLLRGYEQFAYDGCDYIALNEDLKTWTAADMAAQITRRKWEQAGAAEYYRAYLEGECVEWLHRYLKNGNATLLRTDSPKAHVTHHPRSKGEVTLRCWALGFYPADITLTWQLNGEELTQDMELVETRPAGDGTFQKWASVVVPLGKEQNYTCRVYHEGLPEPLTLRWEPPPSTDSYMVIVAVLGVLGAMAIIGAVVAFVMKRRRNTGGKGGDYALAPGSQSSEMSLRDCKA
Chain of H-2Kd class I heavy chain (mouse (endogenous in MDAY-D2)) (P01902 22-368): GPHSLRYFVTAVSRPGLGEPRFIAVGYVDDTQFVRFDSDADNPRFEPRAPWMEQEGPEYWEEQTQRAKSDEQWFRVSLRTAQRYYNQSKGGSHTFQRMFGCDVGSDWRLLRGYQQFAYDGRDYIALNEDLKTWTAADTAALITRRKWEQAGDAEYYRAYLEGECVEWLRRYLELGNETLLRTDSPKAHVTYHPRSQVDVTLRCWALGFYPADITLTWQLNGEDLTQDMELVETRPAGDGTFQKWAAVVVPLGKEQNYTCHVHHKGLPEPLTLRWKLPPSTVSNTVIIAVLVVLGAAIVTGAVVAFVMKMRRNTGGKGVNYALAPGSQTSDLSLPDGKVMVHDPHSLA

Molecule	half-time of association post pulse (in cells) [1] [min]	half-time of disappearance of the complex after the pulse (in cells) [2] [min]	half-time of disappearance of the complex after the pulse (in cells) [3] [min]	half-time of p88 dissociation in the presence of BFA (in cells) [3] [min]	half-time of disappearance of the complex after the pulse (in cells) [4] [min]	half-time of p88 dissociation in the presence of BFA (in cells) [4] [min]	half-time of disappearance of the complex after the pulse (in cells) [5] [min]	percent of heavy chains in the oligomeric species in the pulse-labeled sample [6] [%]
beta 2-microglobulin (from UniProt P01887 21-119) (natural protein)	2 to 5							
p88 (novel 88-kD protein) (natural protein) HDGHDDDAIDIEDDLDDVIEEVEDSKSKSDASTPPSPKVTYKAPVPTGEVYFADSFDRGSLSGWILSKAKKDDTDDEIAKYDGKWEVDEMKETKLPGDKGLVLMSRAKHHAISAKLNKPFLFDTKPLIVQYEVNFQNGIECGGAYVKLLSKTAELSLDQFHDKTPYTIMFGPDKCGEDYKLHFIFRHKNPKTGVYEEKHAKRPDADLKTYFTDKKTHLYTLILNPDNSFEILVDQSVVNSGNLLNDMTPPVNPSREIEDPEDRKPEDWDERPKIADPDAVKPDDWDEDAPSKIPDEEATKPEGWLDDEPEYIPDPDAEKPEDWDEDMDGEWEAPQIANPKCESAPGCGVWQRPMIDNPNYKGKWKPPMIDNPNYQGIWKPRKIPNPDFFEDLEPFKMTPFSAIGLELWSMTSDIFFDNFIISGDRRVVDDWANDGWGLKKAADGAAEPGVVLQMLEAAEERPWLWVVYILTVALPVFLVILFCCSGKKQSNAMEYKKTDAPQPDVKDEEGKEEEKNKRDEEEEEEKLEEKQKSDAEEDGVTGSQDEEDSKPKAEEDEILNRSPRNRKPRRE		38	45	42	20	23	45	20 to 60
